Literature values, collected in article PMC3288267.

Key:
[1] = target: transferrin receptor 1 (TfR), immobilised on SPR chip (UniProt P02786); assay: Surface plasmon resonance, kinetic; settings: pH endosomal pH (numeric value not given)
[2] = target: transferrin receptor 1 (TfR), immobilised on SPR chip (UniProt P02786); assay: Surface plasmon resonance, equilibrium binding; settings: pH endosomal pH (numeric value not given)

Sequence of UniProt P02786 (P02786 whole entry): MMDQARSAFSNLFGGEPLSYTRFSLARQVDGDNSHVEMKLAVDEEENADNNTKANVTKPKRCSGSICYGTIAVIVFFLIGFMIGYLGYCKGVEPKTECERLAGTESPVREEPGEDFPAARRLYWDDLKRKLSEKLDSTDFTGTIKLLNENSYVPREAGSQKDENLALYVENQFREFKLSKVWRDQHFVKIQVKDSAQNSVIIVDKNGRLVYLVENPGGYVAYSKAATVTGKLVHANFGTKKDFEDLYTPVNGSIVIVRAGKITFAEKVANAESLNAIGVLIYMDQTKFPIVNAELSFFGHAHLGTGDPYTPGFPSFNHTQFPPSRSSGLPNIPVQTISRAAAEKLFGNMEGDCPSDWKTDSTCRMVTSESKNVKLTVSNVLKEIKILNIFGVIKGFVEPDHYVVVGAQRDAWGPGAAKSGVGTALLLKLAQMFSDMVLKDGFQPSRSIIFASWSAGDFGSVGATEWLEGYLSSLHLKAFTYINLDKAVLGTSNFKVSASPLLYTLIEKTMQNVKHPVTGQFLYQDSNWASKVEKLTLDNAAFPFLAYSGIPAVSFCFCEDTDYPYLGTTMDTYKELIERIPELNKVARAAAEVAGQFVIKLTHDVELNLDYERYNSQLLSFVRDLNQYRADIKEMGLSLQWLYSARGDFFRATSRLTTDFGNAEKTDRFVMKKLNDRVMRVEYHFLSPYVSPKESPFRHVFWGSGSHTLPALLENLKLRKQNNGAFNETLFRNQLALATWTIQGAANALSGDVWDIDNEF

KD (from kd,end/ka,end) [1]: 1.3 nM
ka,end (association rate constant; kend,a in Table 1) [1]: 4.4 ± 0.4 × 10^7 min^−1 M^−1
kd,end (dissociation rate constant; kend,d in Table 1) [1]: 0.000933 ± 0.0002 s⁻¹
KD (equilibrium SPR) [2]: <15 nM
Substance: apo-transferrin (iron-free), SPR analyte
